Target: FGF23 receptor
Test: cell-based or functional assay

B1: sKlotho-FGF23-6×His fusion polypeptide (ligand)
chain: EPGDGAQTWARFSRPPAPEAAGLFQGTFPDGFLWAVGSAAYQTEGGWQQHGKGASIWDTFTHHPLAPPGDSRNASLPLGAPSPLQPATGDVASDSYNNVFRDTEALRELGVTHYRFSISWARVLPNGSAGVPNREGLRYYRRLLERLRELGVQPVVTLYHWDLPQRLQDAYGGWANRALADHFRDYAELCFRHFGGQVKYWITIDNPYVVAWHGYATGRLAPGIRGSPRLGYLVAHNLLLAHAKVWHLYNTSFRPTQGGQVSIALSSHWINPRRMTDHSIKECQKSLDFVLGWFAKPVFIDGDYPESMKNNLSSILPDFTESEKKFIKGTADFFALCFGPTLSFQLLDPHMKFRQLESPNLRQLLSWIDLEFNHPQIFIVENGWFVSGTTKRDDAKYMYYLKKFIMETLKAIKLDGVDVIGYTAWSLMDGFEWHRGYSIRRGLFYVDFLSQDKMLLPKSSALFYQKLIEKNGFPPLPENQPLEGTFPCDFAWGVVDNYIQVDTTLSQFTDLNVYLWDVHHSKRLIKVDGVVTKKRKSYCVDFAAIQPQIALLQEMHVTHFRFSLDWALILPLGNQSQVNHTILQYYRCMASELVRVNITPVVALWQPMAPNQGLPRLLARQGAWENPYTALAFAEYARLCFQELGHHVKLWITMNEPYTRNMTYSAGHNLLKAHALAWHVYNEKFRHAQNGKISIALQADWIEPACPFSQKDKEVAERVLEFDIGWLAEPIFGSGDYPWVMRDWLNQRNNFLLPYFTEDEKKLIQGTFDFLALSHYTTILVDSEKEDPIKYNDYLEVQEMTDITWLNSPSQVAVVPWGLRKVLNWLKFKYGDLPMYIISNGIDDGLHAEDDQLRVYYMQNYINEALKAHILDGINLCGYFAYSFNDRTAPRFGLYRYAADQFEPKASMKHYRKIIDSNGFPGPETLERFCPEEFTVCTECSFFHTRKSLGSGGGGSGGGGSGGGGSLKYPNASPLLGSSWGGLIHLYTATARNSYHLQIHKNGHVDGAPHQTIYSALMIRSEDAGFVVITGVMSRRYLCMDFRGNIFGSHYFDPENCRFQHQTLENGYDVYHSPQYHFLVSLGRAKRAFLPGMNPPPYSQFLSRRNEIPLIHFNTPIPRRHTQSAEDDSERDPLNVLKPRARMTPAPASCSQELPSAEDNSPMASDPLGVVRGGRVNTHAGGTGPEGCRPFAKFIHHHHHH
In the case of B1, the “Egr-1-luciferase reporter activity, fold change at about 0.6 nM, with heparin (20 µg/ml)” value is reported as 2 fold change, the “Egr-1-luciferase reporter activity, fold change at about 1.21 nM, no heparin” value is reported as 1.2 fold change and the “Egr-1-luciferase reporter activity, fold change at about 19.3 nM, no heparin” value is reported as 2.4 fold change.
